Source: the supplement of paper PMC10567573

B1: EFHC1 (parent)
chain: NIYYYLEDDSMSVIEPVVENSGIL

Variants of: B1
Experiment: protein stability index of a GFP-peptide fusion (GPS, HEK-293T) (PSI 1-6); higher = more stable
Settings: c terminus: a fixed tail appended
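Further: lentivirally expressed fusions sorted by FACS into six bins by GFP to DsRed ratio, PSI derived from sequencing read proportions per bin multiplied by bin number.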

Variant | protein stability index
NIYYYLEDDSMSVEEPVVENSGIL | 3.1
NIYYYLEDDSMSVFEPVVENSGIL | 1.98
NIYYYLEDDSMSVGEPVVENSGIL | 2.51
NIYYYLEDDSMSVHEPVVENSGIL | 2.45
NIYYYLEDDSMSVKEPVVENSGIL | 3.07
NIYYYLEDDSMSVLEPVVENSGIL | 1.95
NIYYYLEDDSMSVMEPVVENSGIL | 2.09
NIYYYLEDDSMSVNEPVVENSGIL | 2.62
NIYYYLEDDSMSVPEPVVENSGIL | 3.08
NIYYYLEDDSMSVQEPVVENSGIL | 1.85
NIYYYLEDDSMSVREPVVENSGIL | 2.78
NIYYYLEDDSMSVSEPVVENSGIL | 2.43
NIYYYLEDDSMSVTEPVVENSGIL | 2.1
NIYYYLEDDSMSVVEPVVENSGIL | 2.31
NIYYYLEDDSMSVWEPVVENSGIL | 1.86
NIYYYLEDDSMSVYEPVVENSGIL | 1.93
NIYYYLEDDSMSVIAPVVENSGIL | 2.22
NIYYYLEDDSMSVICPVVENSGIL | 3.27
NIYYYLEDDSMSVIDPVVENSGIL | 1.96
NIYYYLEDDSMSVIFPVVENSGIL | 2.48
NIYYYLEDDSMSVIGPVVENSGIL | 1.6
NIYYYLEDDSMSVIHPVVENSGIL | 1.75
NIYYYLEDDSMSVIIPVVENSGIL | 3.11
NIYYYLEDDSMSVIKPVVENSGIL | 2.34

Variant | protein stability index
NIYYYLEDDSMSVILPVVENSGIL | 2.31
NIYYYLEDDSMSVIMPVVENSGIL | 2.85
NIYYYLEDDSMSVINPVVENSGIL | 2.79
NIYYYLEDDSMSVIPPVVENSGIL | 2.38
NIYYYLEDDSMSVIQPVVENSGIL | 1.61
NIYYYLEDDSMSVIRPVVENSGIL | 1.32
NIYYYLEDDSMSVISPVVENSGIL | 1.7
NIYYYLEDDSMSVITPVVENSGIL | 1.42
NIYYYLEDDSMSVIWPVVENSGIL | 2.39
NIYYYLEDDSMSVIYPVVENSGIL | 1.02
NIYYYLEDDSMSVIEAVVENSGIL | 2.38
NIYYYLEDDSMSVIECVVENSGIL | 2.54
NIYYYLEDDSMSVIEDVVENSGIL | 2.2
NIYYYLEDDSMSVIEEVVENSGIL | 2.37
NIYYYLEDDSMSVIEFVVENSGIL | 2.73
NIYYYLEDDSMSVIEGVVENSGIL | 1.92
NIYYYLEDDSMSVIEHVVENSGIL | 2.45
NIYYYLEDDSMSVIEIVVENSGIL | 2.75
NIYYYLEDDSMSVIEKVVENSGIL | 2.58
NIYYYLEDDSMSVIEMVVENSGIL | 2.57
NIYYYLEDDSMSVIENVVENSGIL | 1.65
NIYYYLEDDSMSVIEQVVENSGIL | 2.17
NIYYYLEDDSMSVIERVVENSGIL | 2.11
NIYYYLEDDSMSVIESVVENSGIL | 1.83

Variant | protein stability index
NIYYYLEDDSMSVIETVVENSGIL | 2.94
NIYYYLEDDSMSVIEVVVENSGIL | 2.86
NIYYYLEDDSMSVIEWVVENSGIL | 2.61
NIYYYLEDDSMSVIEYVVENSGIL | 1.42
NIYYYLEDDSMSVIEPAVENSGIL | 2.1
NIYYYLEDDSMSVIEPCVENSGIL | 1.85
NIYYYLEDDSMSVIEPDVENSGIL | 2.6
NIYYYLEDDSMSVIEPEVENSGIL | 3.08
NIYYYLEDDSMSVIEPFVENSGIL | 2.88
NIYYYLEDDSMSVIEPGVENSGIL | 1.95
NIYYYLEDDSMSVIEPHVENSGIL | 2.15
NIYYYLEDDSMSVIEPIVENSGIL | 1.62
NIYYYLEDDSMSVIEPKVENSGIL | 2.31
NIYYYLEDDSMSVIEPLVENSGIL | 1.74
NIYYYLEDDSMSVIEPMVENSGIL | 2.07
NIYYYLEDDSMSVIEPNVENSGIL | 1.76
NIYYYLEDDSMSVIEPPVENSGIL | 2.85
NIYYYLEDDSMSVIEPQVENSGIL | 2.41
NIYYYLEDDSMSVIEPRVENSGIL | 1.98
NIYYYLEDDSMSVIEPSVENSGIL | 1.88
NIYYYLEDDSMSVIEPTVENSGIL | 2.32
NIYYYLEDDSMSVIEPWVENSGIL | 1.94
NIYYYLEDDSMSVIEPYVENSGIL | 1.72
NIYYYLEDDSMSVIEPVAENSGIL | 2.19

Variant | protein stability index
NIYYYLEDDSMSVIEPVCENSGIL | 1.82
NIYYYLEDDSMSVIEPVDENSGIL | 2.99
NIYYYLEDDSMSVIEPVEENSGIL | 2.69
NIYYYLEDDSMSVIEPVFENSGIL | 1.85
NIYYYLEDDSMSVIEPVGENSGIL | 3.04
NIYYYLEDDSMSVIEPVHENSGIL | 2.11
NIYYYLEDDSMSVIEPVIENSGIL | 2.23
NIYYYLEDDSMSVIEPVKENSGIL | 2.33
NIYYYLEDDSMSVIEPVLENSGIL | 2.16
NIYYYLEDDSMSVIEPVMENSGIL | 1.66
NIYYYLEDDSMSVIEPVNENSGIL | 2.6
NIYYYLEDDSMSVIEPVPENSGIL | 2.38
NIYYYLEDDSMSVIEPVQENSGIL | 2.38
NIYYYLEDDSMSVIEPVRENSGIL | 1.92
NIYYYLEDDSMSVIEPVSENSGIL | 2.67
NIYYYLEDDSMSVIEPVTENSGIL | 2.23
NIYYYLEDDSMSVIEPVWENSGIL | 1.13
NIYYYLEDDSMSVIEPVYENSGIL | 1.67
NIYYYLEDDSMSVIEPVVANSGIL | 1.59
NIYYYLEDDSMSVIEPVVCNSGIL | 1.39
NIYYYLEDDSMSVIEPVVDNSGIL | 2.01
NIYYYLEDDSMSVIEPVVFNSGIL | 1.89
